According to article PMC10786891, “Massively parallel profiling of RNA-targeting CRISPR-Cas13d”:
Numbering of substitutions follows the chain as printed. Numbers in names are those of the source.

Biological target: T1, EsCas13d, nuclease-dead (Eubacterium siraeum, UniProt B0MS50, R295A;H300A;R849A;H854A)
T1 sequence: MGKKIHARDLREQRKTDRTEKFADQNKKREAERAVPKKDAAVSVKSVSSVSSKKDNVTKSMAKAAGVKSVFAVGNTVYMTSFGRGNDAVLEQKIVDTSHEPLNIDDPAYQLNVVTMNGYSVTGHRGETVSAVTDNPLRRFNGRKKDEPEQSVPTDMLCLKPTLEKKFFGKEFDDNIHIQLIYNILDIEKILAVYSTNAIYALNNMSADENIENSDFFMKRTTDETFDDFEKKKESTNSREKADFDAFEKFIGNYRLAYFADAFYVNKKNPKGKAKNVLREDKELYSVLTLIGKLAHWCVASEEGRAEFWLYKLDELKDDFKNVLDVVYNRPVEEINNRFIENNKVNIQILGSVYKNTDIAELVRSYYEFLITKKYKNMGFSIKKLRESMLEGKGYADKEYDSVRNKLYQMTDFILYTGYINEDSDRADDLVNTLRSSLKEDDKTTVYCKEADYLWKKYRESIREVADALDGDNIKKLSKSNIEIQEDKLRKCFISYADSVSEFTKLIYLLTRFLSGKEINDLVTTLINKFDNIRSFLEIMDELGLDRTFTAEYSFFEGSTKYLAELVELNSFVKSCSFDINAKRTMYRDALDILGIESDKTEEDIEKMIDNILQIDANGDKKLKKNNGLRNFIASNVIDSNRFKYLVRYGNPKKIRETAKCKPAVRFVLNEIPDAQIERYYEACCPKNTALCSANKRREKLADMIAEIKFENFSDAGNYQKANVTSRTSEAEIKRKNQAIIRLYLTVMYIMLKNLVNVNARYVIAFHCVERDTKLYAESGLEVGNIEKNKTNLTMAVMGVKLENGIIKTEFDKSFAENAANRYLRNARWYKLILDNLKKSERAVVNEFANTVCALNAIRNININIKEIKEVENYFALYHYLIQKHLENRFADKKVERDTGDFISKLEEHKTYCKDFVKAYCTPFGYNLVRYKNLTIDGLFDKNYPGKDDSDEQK
Assay: crRNA (strand 1, pre-loaded); Mg2+; 40 mM Tris-HCl pH 7.5, 150 mM NaCl, 6 mM MgCl2, 1 mM DTT, 0.1% Tween-20, 0.2 mg/ml BSA; 25 C; 10 min per concentration, then washed
Details: tags: His6-TwinStrep-SUMO cleaved; N-terminal SNAP kept (SNAP-Surface 488); label: 3' end held by stalled T7 RNA polymerase

B1: target 1 insG 3' of 7,insG 3' of 7 (mixed)
RNA 1: CACCCGUGCAAAAAUGCAGGGGUCUAAAACUGAGCGGAUAACCUCUCUAUGG
RNA 2: GGGAAUGGAUCCACAUCUACGAAUUCGUACCAUAGAGAGGUUAUCGGCGCUCACCGAGAUCGGAAGAGCACACGU
- Kd: 9.8 ± 0.5 nM

B2: target 1 insA 3' of 21,insU 3' of 9 (mixed)
RNA 1: B1 RNA 1
RNA 2: GGGAAUGGAUCCACAUCUACGAAUUCGUACCAAUAGAGAGGUUAUUCCGCUCACCGAGAUCGGAAGAGCACACGU
- Kd: 24.4 ± 2.1 nM

B3: target 1 insU 3' of 7,insU 3' of 5 (mixed)
RNA 1: B1 RNA 1
RNA 2: B1 RNA 2 with G46U, G47C, C48G, G49U
- Kd: 14.5 ± 0.5 nM

B4: target 1 insC 3' of 22,insC 3' of 15 (mixed)
RNA 1: B1 RNA 1
RNA 2: B2 RNA 2 with A32C, A39C, G40A, U42G, A44U, U45A
- Kd: 40 ± 7 nM

B5: target 1 G15A,U19C (mixed)
RNA 1: B1 RNA 1
RNA 2: GGGAAUGGAUCCACAUCUACGAAUUCGUACCACAGAAAGGUUAUCCGCUCACCGAGAUCGGAAGAGCACACGU
- Kd: 61 ± 20 nM

B6: target 1 insU 3' of 7,insA 3' of 2 (mixed)
RNA 1: B1 RNA 1
RNA 2: B1 RNA 2 with G46U, G47C, C48G, G49C, C50U, U51C, C52A
- Kd: 18.7 ± 1.5 nM

B7: target 1 C4A,C7U (mixed)
RNA 1: B1 RNA 1
RNA 2: B5 RNA 2 with C33U, A37G, C45U, C48A
- Kd: 3.39 ± 0.26 nM

B8: target 1 G5U,C6U (mixed)
RNA 1: B1 RNA 1
RNA 2: B5 RNA 2 with C33U, A37G, C46U, G47U
- Kd: 48 ± 4 nM

B9: target 1 complement block 10-12 (mixed)
RNA 1: B1 RNA 1
RNA 2: B5 RNA 2 with C33U, A37G, G40C, U41A, U42A
- Kd: 6.8 ± 0.4 nM

B10: target 1 insU 3' of 12,insC 3' of 10 (mixed)
RNA 1: B1 RNA 1
RNA 2: B1 RNA 2 with A43U, U44C, C45A, G46U, G47C
- Kd: 45 ± 6 nM

B11: target 1 insA 3' of 10,insC 3' of 5 (mixed)
RNA 1: B1 RNA 1
RNA 2: B1 RNA 2 with U44A, C45U, G46C, G47C, C48G, G49C
- Kd: 10.1 ± 0.5 nM

B12: target 1 insC 3' of 15,insU 3' of 9 (mixed)
RNA 1: B1 RNA 1
RNA 2: B2 RNA 2 with A33U, U34A, A35G, G36A, A37G, G38C
- Kd: 14.4 ± 0.8 nM

B13: target 1 insG 3' of 18,insG 3' of 16 (mixed)
RNA 1: B1 RNA 1
RNA 2: B2 RNA 2 with A33U, U34A, A35G, A39G, G40A, U42G, A44U, U45A
- Kd: 55 ± 9 nM

B14: target 1 insG 3' of 4,insG 3' of 3 (mixed)
RNA 1: B1 RNA 1
RNA 2: B1 RNA 2 with G46C, C50U, U51G
- Kd: 8.2 ± 0.35 nM

B15: target 1 G13U,C22A (mixed)
RNA 1: B1 RNA 1
RNA 2: B5 RNA 2 with C30A, C33U, A37G, G39U
- Kd: 63 ± 27 nM

B16: target 1 insU 3' of 20,insU 3' of 9 (mixed)
RNA 1: B1 RNA 1
RNA 2: B2 RNA 2 with A33U
- Kd: 20.5 ± 1.2 nM

B17: target 1 G5C,A9G (mixed)
RNA 1: B1 RNA 1
RNA 2: B5 RNA 2 with C33U, A37G, A43G, G47C
- Kd: 8.9 ± 0.5 nM

B18: target 1 insU 3' of 20,insG 3' of 16 (mixed)
RNA 1: B1 RNA 1
RNA 2: B2 RNA 2 with A33U, A39G, G40A, U42G, A44U, U45A
- Kd: 36 ± 4 nM

B19: target 1 insU 3' of 6,insU 3' of 6 (mixed)
RNA 1: B1 RNA 1
RNA 2: B1 RNA 2 with G46C, G47U, C48U
- Kd: 11.7 ± 0.7 nM

B20: target 1 A9C,G12A (mixed)
RNA 1: B1 RNA 1
RNA 2: B5 RNA 2 with C33U, A37G, G40A, A43C
- Kd: 16.6 ± 1.9 nM

B21: target 1 insC 3' of 17,insG 3' of 2 (mixed)
RNA 1: B1 RNA 1
RNA 2: GGGAAUGGAUCCACAUCUACGAAUUCGUACCAUAGCAGAGGUUAUCCGCUCGACCGAGAUCGGAAGAGCACACGU
- Kd: ~38 nM

B22: target 1 insA 3' of 17,insA 3' of 11 (mixed)
RNA 1: B1 RNA 1
RNA 2: B2 RNA 2 with A33U, U34A, A35G, G36A, U43A, A44U, U45A
- Kd: 24.5 ± 1.7 nM

B23: target 1 U8C,A14G (mixed)
RNA 1: B1 RNA 1
RNA 2: B5 RNA 2 with C33U, A37G, A38G, U44C
- Kd: 25.7 ± 2 nM

B24: target 1 U8G,C22U (mixed)
RNA 1: B1 RNA 1
RNA 2: B5 RNA 2 with C30U, C33U, A37G, U44G
- Kd: 29.7 ± 2.6 nM

B25: target 1 insC 3' of 12,insG 3' of 10 (mixed)
RNA 1: B1 RNA 1
RNA 2: B1 RNA 2 with U41C, A43U, U44G, C45A, G46U, G47C
- Kd: 12.3 ± 0.5 nM

B26: target 1 C7G,A20C (mixed)
RNA 1: B1 RNA 1
RNA 2: B5 RNA 2 with A32C, C33U, A37G, C45G
- Kd: 86 ± 30 nM

B27: target 1 insU 3' of 14,insU 3' of 6 (mixed)
RNA 1: B1 RNA 1
RNA 2: B1 RNA 2 with G39U, U41G, A43U, U44A, C45U, G46C, G47C, C48U
- Kd: 61 ± 8 nM

B28: target 1 C4A,U8C (mixed)
RNA 1: B1 RNA 1
RNA 2: B5 RNA 2 with C33U, A37G, U44C, C48A
- Kd: 5.2 ± 0.6 nM

B29: target 1 A9G,A16C (mixed)
RNA 1: B1 RNA 1
RNA 2: B5 RNA 2 with C33U, A36C, A37G, A43G
- Kd: 36.4 ± 1.8 nM

B30: target 1 U11C,G13U (mixed)
RNA 1: B1 RNA 1
RNA 2: B5 RNA 2 with C33U, A37G, G39U, U41C
- Kd: 60 ± 10 nM

B31: target 1 insC 3' of 11 (mixed)
RNA 1: B1 RNA 1
RNA 2: GGGAAUGGAUCCACAUCUACGAAUUCGUACCAUAGAGAGGUCUAUCCGCUCACCGAGAUCGGAAGAGCACACGU
- Kd: 29.8 ± 3.1 nM

B32: target 1 insU 3' of 17,insA 3' of 10 (mixed)
RNA 1: B1 RNA 1
RNA 2: B2 RNA 2 with A33U, U34A, A35G, G36U, U45A
- Kd: 25.2 ± 3.4 nM

B33: target 1 insU 3' of 13,insC 3' of 13 (mixed)
RNA 1: B1 RNA 1
RNA 2: B1 RNA 2 with G40U, U41C, U42G, A43U, C45A, G46U, G47C
- Kd: 8.6 ± 0.5 nM

B34: target 1 del9,del22 (mixed)
RNA 1: B1 RNA 1
RNA 2: GGGAAUGGAUCCACAUCUACGAAUUCGUACAUAGAGAGGUUUCCGCUCACCGAGAUCGGAAGAGCACACGU
- Kd: 69 ± 9 nM
